Values of other authors, collected in patent publication US10076577B2, “Compositions and methods for treating endocrine, gastrointestinal or autoimmune disorders” (priority 2010, dated 2018).

Conditions: in vivo

## Glucagon-like peptide-1 [GLP-1]
  half-life in the blood: a few minutes
